# Where a chain is given by its changes, count along the chain named. Names may count otherwise.
# B1: GST fusion of FGFR2 residues 764-821 with P804A (C4) (domain or fragment, UniProt P21802 764-821, looked up)
# chain: TTNEEYLDLSQPLEQYSPSYPDTRSSCSSGDDSVFSPDPMAYEPCLPQYPHINGSVKT
# notes: FGFR2, last 58 amino acids, residues 764-821, P804A
# B2: GST fusion of the last 58 amino acids of FGFR2 (residues 764-821), wild-type construct (C) (domain or fragment, UniProt P21802 764-821, looked up)
# chain: B1 chain with A41P
# notes: FGFR2, last 58 amino acids, residues 764-821; PGEX vector
# Legend:
# [1] = target: TRPA1-GFP truncated of 5 ankyrin repeats (Δ5-GFP); assay: FRET or BRET; FLIM-FRET in fixed serum-starved HEK 293T cells co-expressing FGFR2-RFP with Δ5-GFP or Δ10-GFP; shift of GFP lifetime against empty GFP vector
# [2] = target: T1, purified full-length human TRPA1 (human, UniProt O75762 1-1119, biotinylated with EDC-based carboxyl-biotinylation reagent (streptavidin pull-down); labeled with Alexafluor 488 (MST); unlabelled in the GST pull-down); assay: pull-down; GST constructs on glutathione-sepharose beads incubated with purified full-length TRPA1; western blot; conditions: both partners purified
# T1 construct: human TRPA1, full length; kept in PBS with 0.014% F-14; also called hTRPA1; full-length purified TRPA1; source: Pichia pastoris, purified (Ni-NTA)
# T1 sequence (O75762 whole entry): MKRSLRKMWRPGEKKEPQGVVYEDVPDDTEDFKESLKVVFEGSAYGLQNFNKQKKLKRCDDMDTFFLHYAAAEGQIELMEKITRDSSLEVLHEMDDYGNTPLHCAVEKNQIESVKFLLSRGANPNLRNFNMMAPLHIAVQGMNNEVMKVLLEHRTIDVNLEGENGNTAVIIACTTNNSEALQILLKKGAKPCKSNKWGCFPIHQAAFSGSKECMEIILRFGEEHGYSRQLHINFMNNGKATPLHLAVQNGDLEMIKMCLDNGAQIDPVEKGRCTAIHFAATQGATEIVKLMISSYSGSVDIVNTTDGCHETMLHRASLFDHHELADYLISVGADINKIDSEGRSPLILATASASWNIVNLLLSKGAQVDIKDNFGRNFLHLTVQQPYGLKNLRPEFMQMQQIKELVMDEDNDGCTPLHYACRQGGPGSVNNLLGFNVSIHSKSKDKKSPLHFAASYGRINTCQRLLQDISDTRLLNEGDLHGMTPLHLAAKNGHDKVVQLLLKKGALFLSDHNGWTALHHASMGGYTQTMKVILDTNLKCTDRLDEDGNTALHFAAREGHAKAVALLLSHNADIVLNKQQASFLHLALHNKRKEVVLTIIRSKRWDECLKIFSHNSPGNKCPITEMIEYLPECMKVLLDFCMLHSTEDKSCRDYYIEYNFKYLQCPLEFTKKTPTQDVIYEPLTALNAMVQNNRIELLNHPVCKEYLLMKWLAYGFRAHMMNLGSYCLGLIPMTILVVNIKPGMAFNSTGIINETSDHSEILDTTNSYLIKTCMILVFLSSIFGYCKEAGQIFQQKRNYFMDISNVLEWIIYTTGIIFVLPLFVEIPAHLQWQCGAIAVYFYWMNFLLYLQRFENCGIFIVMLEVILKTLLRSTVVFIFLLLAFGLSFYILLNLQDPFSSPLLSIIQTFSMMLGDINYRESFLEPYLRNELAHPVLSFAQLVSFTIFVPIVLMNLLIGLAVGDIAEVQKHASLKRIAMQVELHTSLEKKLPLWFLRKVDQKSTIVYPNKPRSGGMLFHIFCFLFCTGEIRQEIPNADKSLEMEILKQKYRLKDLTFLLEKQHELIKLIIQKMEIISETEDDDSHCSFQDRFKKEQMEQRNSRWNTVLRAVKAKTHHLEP
# TRPA1-GFP truncated of 5 ankyrin repeats (Δ5-GFP), sequence (O75762 whole entry, stated change not applied, the tested form may be a part): as the sequence (O75762 whole entry) above
Molecule,shift of GFP fluorescence lifetime (FLIM-FRET) [1],binding result [2]
FGFR2-RFP (from UniProt P21802 22-821) (receptor),0.09 ns,–
B1,–,binds
B2,–,binds

# Source: publication PMC5643494, “TRPA1–FGFR2 binding event is a regulatory oncogenic driver modulated by miRNA-142-3p” (Nature Communications, 2017)
